Laboratory results as given in PMC10397247.

Experiments:
Assay in all cases: two-hybrid library CCNG1;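 further: natural log of median RNA to DNA barcode read ratio; higher means stronger binding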
O1-bP = target: T1, O1-bP
T1 chain: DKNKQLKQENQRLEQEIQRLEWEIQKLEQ

4H949-bH = target: T2, 4H949-bH
T2 chain: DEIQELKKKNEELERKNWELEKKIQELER

4H932-bH = target: T3, 4H932-bH
T3 chain: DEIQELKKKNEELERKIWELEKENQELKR

B1: 4H932-bH (peptide)
chain: DEIQELKKKNEELERKIWELEKENQELKR
interaction score (O1-bP): -1.96
interaction score (4H949-bH): -0.517
interaction score (4H932-bH): -0.509
